Source: paper PMC12712897

Assays:
[1] = target: type I interleukin-1 receptor (UniProt P14778); experiment: MST; fluorescently labeled IL-1R1 titrated with serially diluted IL-1Ra variants and IL-1β; Monolith NT.115-pico
[2] = target: type I interleukin-1 receptor (UniProt P14778); experiment: SPR; IL-1R1 captured on a CM5 chip via a His Capture Kit; various concentrations of IL-1Ra variants and IL-1β flowed as analytes; Biacore T200
[3] = target: type I interleukin-1 receptor (UniProt P14778)
[4] = target: type I interleukin-1 receptor (UniProt P14778); remark: listed apart in the source

Sequence of UniProt P14778 (P14778 18-336): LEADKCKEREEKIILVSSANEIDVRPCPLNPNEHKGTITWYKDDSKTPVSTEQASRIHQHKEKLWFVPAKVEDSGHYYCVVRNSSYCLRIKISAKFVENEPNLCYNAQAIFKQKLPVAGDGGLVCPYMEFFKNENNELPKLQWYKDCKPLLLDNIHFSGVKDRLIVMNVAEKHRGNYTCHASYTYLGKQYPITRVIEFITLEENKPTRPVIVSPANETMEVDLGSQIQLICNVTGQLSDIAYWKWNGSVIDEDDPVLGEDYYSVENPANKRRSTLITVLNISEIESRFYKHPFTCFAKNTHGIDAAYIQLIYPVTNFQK

Kd [1] [nM] | Kd [2] [nM] | reduction of IL-1β mRNA in HMC-3 cells (IL-1β 1 ng/ml + hIL-1Ra 25 ng/ml, 24 h; blocks IL-1β acting on IL-1R1) compared with RD hIL-1Ra WT [3] [%] | reduction of IL-1β mRNA in HMC-3 cells (IL-1β 1 ng/ml + hIL-1Ra 25 ng/ml, 24 h; blocks IL-1β acting on IL-1R1) compared with iPT hIL-1Ra WT [3] [%] | reduction of IL-6 mRNA in HMC-3 cells (IL-1β 1 ng/ml + hIL-1Ra 25 ng/ml, 24 h; blocks IL-1β acting on IL-1R1) compared with RD hIL-1Ra WT [4] [%] | reduction of IL-6 mRNA in HMC-3 cells (IL-1β 1 ng/ml + hIL-1Ra 25 ng/ml, 24 h; blocks IL-1β acting on IL-1R1) compared with iPT hIL-1Ra WT [4] [%] | Substance
7.52 | 0.396 |  |  |  |  | hIL-1Ra E127C (natural protein)
40.6 | 3.5 |  |  |  |  | hIL-1Ra E127D (natural protein)
4.59 | 0.256 |  |  |  |  | hIL-1Ra E127H (natural protein)
5.54 | 0.41 | 35 | 32 |  |  | hIL-1Ra E127K (natural protein)
6.06 | 0.281 |  |  |  |  | hIL-1Ra E127N (natural protein)
3.84 | 0.283 |  |  | 53 | 49 | hIL-1Ra E127Q (natural protein)
2.45 | 0.248 |  |  |  |  | hIL-1Ra E127S (natural protein)
4.61 | 0.258 |  |  |  |  | hIL-1Ra E127V (natural protein)
